± gives the standard deviation of the averaged measurements.
Test system: Saccharomyces cerevisiae
Assay: protein stability index of tFT-peptide fusion (C-terminal peptide) (PSI (0-1 scale)); higher = more stable (slower turnover)
Conditions: genetic background: doa10 deletion; temperature: 30 C
Method: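 MPS profiling in S. cerevisiae of the tFT-X12 degron library: putative degron peptides plus stable controls, 12 aa, fused to the C-terminus of a sfGFP-mCherry timer. Cells are FACS-sorted into 8 mCherry/sfGFP bins and deep-sequenced. PSI runs from 0 (unstable) to 1 (stable). Backgrounds are wild type, das1Δ and doa10Δ at 30 °C, and wild type, das1Δ, cdc34-1 and cdc53-1 at 37 °C; 2-3 technical replicates each.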
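Note: PSI is a weighted mean of sequencing reads over stability bins, variants kept only with over 10 reads, mCherry proximal and sfGFP distal, peptide attached via GGGS linker.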

Sequence	protein stability index
RLILAIVVSGGL	0.252 ± 0.015
RLVGVRWEVCNL	0.771 ± 0.022
RNNLHKKIRRGY	0.184 ± 0.028
RRLRPQTVAFLS	0.159 ± 0.0046
RRVLVVPCIWHM	0.174 ± 0.026
RSGWWQWGRPGT	0.692 ± 0.034
RSIAFLLGQFLS	0.372 ± 0.019
RSKLGVLVILWF	0.243 ± 0.016
RSYAYIIVATVA	0.14 ± 0.0081
RTALSSPRPALL	0.7131 ± 0.0061
RTFPYSALSFVS	0.216 ± 0.022
RVFRRFCCVISM	0.437 ± 0.027
RVFVGLVDFLFW	0.37 ± 0.019
RVVITYLVLSNR	0.522 ± 0.039
RWALPALWAYAA	0.0884 ± 0.011
RWGLFIGIVIGF	0.235 ± 0.014
RYQDLSDWRRIS	0.073 ± 0.0096
RYTWHGICIVTR	0.285 ± 0.0063
SCCLLICIFFIF	0.227 ± 0.0076
SCLSYRTRLLAF	0.406 ± 0.0086

Sequence	protein stability index
SCRCIIFVCCFW	0.235 ± 0.0024
SFFVCAGFWVLC	0.248 ± 0.011
SFLCGCVVCWLW	0.4 ± 0.027
SFLVRFVYFFAL	0.229 ± 0.02
SFQLVFLCVLIW	0.203 ± 0.011
SFTPPRVCLCFS	0.2778 ± 0.002
SFVCFFLNLFVY	0.123 ± 0.021
SGCWGRRLWFFN	0.189 ± 0.018
SIFWWWLVFILG	0.366 ± 0.018
SIIRHLFHPSST	0.65 ± 0.018
SIPFWPVLFFLL	0.0877 ± 0.011
SIRIIVVVRGAS	0.393 ± 0.024
SLCSRLVVVAWF	0.374 ± 0.035
SLRKRILCRFEY	0.368 ± 0.041
SLSIFCLMLMLF	0.425 ± 0.015
SPPSFPPLLLLS	0.326 ± 0.028
SPSFLVIFTMLL	0.438 ± 0.044
SPSSLPRPLFLS	0.138 ± 0.033
SPVPITVAVGCR	0.329 ± 0.008
SQSNQSIIRKNV	0.296 ± 0.034

Sequence	protein stability index
SSCLPAPPPLPL	0.677 ± 0.0075
SSFFFLFCFFPS	0.444 ± 0.031
SSFPGPPLPPDP	0.682 ± 0.038
SSVFRLKGLMFL	0.262 ± 0.0081
SSVLLMFFCFVC	0.159 ± 0.012
SSVLWVMFVFFY	0.264 ± 0.0091
SVFGLLSVCFFY	0.358 ± 0.016
SVKRVVPCLVSC	0.289 ± 0.0049
SVLSFGVFCLVG	0.4185 ± 0.0031
SVPRTRAPRLIS	0.184 ± 0.0079
SVVFFYPPIFHA	0.28 ± 0.0055
SVVYSVWIYLLH	0.175 ± 0.0072
TEVGAWLLLCRC	0.231 ± 0.0043
TFLVWSLMAGDR	0.484 ± 0.011
TFRVLAFFCRVV	0.308 ± 0.0053
TKGIIKKINIIM	0.154 ± 0.0088
TLCCLVCSQGVV	0.482 ± 0.031
TLFSPPVLATPS	0.513 ± 0.021
TLLSSIFLCLVL	0.466 ± 0.012
TRHIGQYIHKIT	0.151 ± 0.0037

Same assay, conditions: genetic background: wild type; temperature: 30 C

Sequence	protein stability index
RLILAIVVSGGL	0.305 ± 0.022
RLVGVRWEVCNL	0.772 ± 0.014
RNNLHKKIRRGY	0.251 ± 0.037
RRLRPQTVAFLS	0.176 ± 0.025
RRVLVVPCIWHM	0.223 ± 0.022
RSGWWQWGRPGT	0.691 ± 0.03
RSIAFLLGQFLS	0.395 ± 0.047
RSKLGVLVILWF	0.273 ± 0.025
RSYAYIIVATVA	0.178 ± 0.025
RTALSSPRPALL	0.723 ± 0.011
RTFPYSALSFVS	0.235 ± 0.045
RVFRRFCCVISM	0.339 ± 0.022
RVFVGLVDFLFW	0.394 ± 0.033
RVVITYLVLSNR	0.505 ± 0.018
RWALPALWAYAA	0.105 ± 0.012
RWGLFIGIVIGF	0.217 ± 0.024
RYQDLSDWRRIS	0.0791 ± 0.017
RYTWHGICIVTR	0.313 ± 0.019
SCCLLICIFFIF	0.231 ± 0.029
SCLSYRTRLLAF	0.41 ± 0.014

Sequence	protein stability index
SCRCIIFVCCFW	0.237 ± 0.034
SFFVCAGFWVLC	0.289 ± 0.016
SFLCGCVVCWLW	0.396 ± 0.014
SFLVRFVYFFAL	0.232 ± 0.027
SFQLVFLCVLIW	0.154 ± 0.0091
SFTPPRVCLCFS	0.3 ± 0.024
SFVCFFLNLFVY	0.123 ± 0.019
SGCWGRRLWFFN	0.235 ± 0.016
SIFWWWLVFILG	0.368 ± 0.026
SIIRHLFHPSST	0.659 ± 0.03
SIPFWPVLFFLL	0.091 ± 0.011
SIRIIVVVRGAS	0.41 ± 0.017
SLCSRLVVVAWF	0.386 ± 0.0062
SLRKRILCRFEY	0.4388 ± 0.0014
SLSIFCLMLMLF	0.406 ± 0.021
SPPSFPPLLLLS	0.362 ± 0.022
SPSFLVIFTMLL	0.444 ± 0.013
SPSSLPRPLFLS	0.163 ± 0.02
SPVPITVAVGCR	0.357 ± 0.021
SQSNQSIIRKNV	0.36 ± 0.032

Sequence	protein stability index
SSCLPAPPPLPL	0.672 ± 0.021
SSFFFLFCFFPS	0.449 ± 0.019
SSFPGPPLPPDP	0.7 ± 0.019
SSVFRLKGLMFL	0.277 ± 0.016
SSVLLMFFCFVC	0.164 ± 0.011
SSVLWVMFVFFY	0.253 ± 0.067
SVFGLLSVCFFY	0.398 ± 0.018
SVKRVVPCLVSC	0.337 ± 0.022
SVLSFGVFCLVG	0.427 ± 0.033
SVPRTRAPRLIS	0.213 ± 0.024
SVVFFYPPIFHA	0.326 ± 0.027
SVVYSVWIYLLH	0.213 ± 0.03
TEVGAWLLLCRC	0.277 ± 0.017
TFLVWSLMAGDR	0.474 ± 0.043
TFRVLAFFCRVV	0.286 ± 0.025
TKGIIKKINIIM	0.206 ± 0.035
TLCCLVCSQGVV	0.479 ± 0.039
TLFSPPVLATPS	0.54 ± 0.014
TLLSSIFLCLVL	0.462 ± 0.024
TRHIGQYIHKIT	0.233 ± 0.049

Source: the supplement of paper PMC10724198
